Patent US20120039846A1

Tests used:
[1] = molecular target: H77c E2 with substitutions at Val536 (row 10), Phe537 (row 11) and Asn540 (row 12); test: ELISA on GNA-captured mutant E2 from 293T lysates
[2] = molecular target: HCV envelope glycoprotein E2, genotype 1a (hepatitis C virus genotype 1a) (UniProt P27958); test: cell-based or functional assay
[3] = molecular target: HCV envelope glycoprotein E2, genotype 1b (hepatitis C virus genotype 1b); test: CD81 capture ELISA; 1b E1E2 lysate preincubated with antibody (15 µg/ml), added to CD81-coated wells, detected with biotinylated CBH-4D
[4] = molecular target: H77c E2 mutant, Ala531 substituted (hepatitis C virus genotype 1a, strain H77c) (UniProt P27958); test: ELISA on GNA-captured mutant E2 from 293T lysates
[5] = molecular target: H77c E2 mutant, Asn532 substituted (hepatitis C virus genotype 1a, strain H77c) (UniProt P27958); test: ELISA on GNA-captured mutant E2 from 293T lysates
[6] = molecular target: H77c E2 mutant, Asp533 substituted (hepatitis C virus genotype 1a, strain H77c) (UniProt P27958); test: ELISA on GNA-captured mutant E2 from 293T lysates
[7] = molecular target: H77c E2 mutant, Pro525 substituted (hepatitis C virus genotype 1a, strain H77c) (UniProt P27958); test: ELISA on GNA-captured mutant E2 from 293T lysates
[8] = molecular target: H77c E2 mutant, Thr534 substituted (hepatitis C virus genotype 1a, strain H77c) (UniProt P27958); test: ELISA on GNA-captured mutant E2 from 293T lysates
[9] = molecular target: HCV envelope glycoprotein E2, genotype 1b (hepatitis C virus genotype 1b); test: competition ELISA on GNA-captured E2 of 1b HCVpp lysate; competing antibody 20 ug/ml; competitor: biotinylated CBH-7 at 2 ug/ml
[10] = molecular target: H77c E2 mutant, Asn540 replaced by alanine (hepatitis C virus genotype 1a, strain H77c) (UniProt P27958); test: ELISA on GNA-captured mutant E2 from 293T lysates
[11] = molecular target: H77c E2 mutant, Asp535 replaced by alanine (hepatitis C virus genotype 1a, strain H77c) (UniProt P27958); test: ELISA on GNA-captured mutant E2 from 293T lysates
[12] = molecular target: H77c E2 mutant, Gly523 replaced by alanine (hepatitis C virus genotype 1a, strain H77c) (UniProt P27958); test: ELISA on GNA-captured mutant E2 from 293T lysates
[13] = molecular target: H77c E2 mutant, Gly530 replaced by alanine (hepatitis C virus genotype 1a, strain H77c) (UniProt P27958); test: ELISA on GNA-captured mutant E2 from 293T lysates
[14] = molecular target: H77c E2 mutant, Trp529 replaced by alanine (hepatitis C virus genotype 1a, strain H77c) (UniProt P27958); test: ELISA on GNA-captured mutant E2 from 293T lysates
[15] = molecular target: H77c E2 mutant D658A (hepatitis C virus genotype 1a, strain H77c) (UniProt P27958); test: alanine replacement, ELISA
[16] = molecular target: H77c E2 mutant D698A (hepatitis C virus genotype 1a, strain H77c) (UniProt P27958); test: alanine replacement, ELISA
[17] = molecular target: H77c E2 mutant F679A (hepatitis C virus genotype 1a, strain H77c) (UniProt P27958); test: alanine replacement, ELISA
[18] = molecular target: H77c E2 mutant I696A (hepatitis C virus genotype 1a, strain H77c) (UniProt P27958); test: alanine replacement, ELISA
[19] = molecular target: H77c E2 mutant L692A (hepatitis C virus genotype 1a, strain H77c) (UniProt P27958); test: alanine replacement, ELISA
[20] = molecular target: H77c E2 mutant R657A (hepatitis C virus genotype 1a, strain H77c) (UniProt P27958); test: alanine replacement, ELISA

## CBH-4G (antibody)
[1]
  percent decrease in binding vs wild type: 70 to 95%

## CBH-5 (antibody)
[2]
  IC50 of 1a HCVpp neutralization: 4 µg/mL
  neutralization of 1a HCVpp at 20 µg/ml: 60%
[3]
  percent reduction of E2 binding to CD81: > 90%

## HC-12 (antibody)
[4]
  percent change in binding vs wild type: < 20%
[5]
  percent change in binding vs wild type: < 20%
[6]
  percent change in binding vs wild type: < 20%
[7]
  percent change in binding vs wild type: < 20%
[8]
  percent change in binding vs wild type: < 20%

## human monoclonal antibody CBH-23
[9]
  percent competition: > 90%
[3]
  percent reduction of E2 binding to CD81: > 90%

## human monoclonal antibody HC-1
[4]
  percent change in binding vs wild type: < 20%
[5]
  percent change in binding vs wild type: < 20%
[10]
  percent of wild-type binding (% of wild type): < 10
[6]
  percent change in binding vs wild type: < 20%
[11]
  percent decrease in binding vs wild type: > 80%
[12]
  percent decrease in binding vs wild type: 60%
[13]
  percent decrease in binding vs wild type: > 80%
  percent of wild-type binding (% of wild type): < 10
[7]
  percent change in binding vs wild type: < 20%
[8]
  percent change in binding vs wild type: < 20%
[14]
  percent of wild-type binding (% of wild type): < 10
[3]
  percent reduction of E2 binding to CD81: > 90%

## human monoclonal antibody HC-3
[15]
  percent decrease in binding: > 90%
[16]
  percent decrease in binding: > 90%
[17]
  percent decrease in binding: > 90%
[18]
  percent decrease in binding: > 90%
[19]
  percent decrease in binding: > 90%
[20]
  percent decrease in binding: > 90%

## human monoclonal antibody HC-11
[2]
  IC50 of 1a HCVpp neutralization: 0.9 µg/mL
[12]
  percent decrease in binding vs wild type: 60%
[14]
  percent decrease in binding vs wild type: 44%
[3]
  percent reduction of E2 binding to CD81: > 90%
